For this test, the target named is His-EspC (enteropathogenic Escherichia coli (EPEC)) (UniProt Q9EZE7). Kind of test: SPR; His-EspC coupled by its His tag and EDC-NHS on a nickel-nitrilotriacetic acid sensor slide; His-EspA or His-EspA/His-EspD perfused in PBST at 50 µl/min; Reichert SR7500DC. Background: SPR reads the build-up and loss of mass on a sensor chip optically.

Broadly, the Kd is a measure of binding affinity in units of concentration. A low value points to a tighter complex.

Consider “His-EspA/His-EspD complex (from UniProt Q47184 1-192)”, for which the Kd worked out at 24.8 nM.
